Test results from patent US20230074615A1.
Changes are numbered by the printed parent chain.

B1: anti-MMP9 Fab H25 (Fab, V domains shown)
VH: EVQLVESGGGLVQPGGSLRLSCAASGFNIYSSSMHWVRQAPGKGLEWVASIYSYYGYTYYADSVKGRFTISADTSKNTAYLQMNSLRAEDTAVYYCARCKLYTSYMIPVGSDSVNRCMSSYGMDYWGQGTLVTVSS
VL: DIQMTQSPSSLSASVGDRVTITCRASQSVSSAVAWYQQKPGKAPKLLIYSASSLYSGVPSRFSGSRSGTDFTLTISSLQPEDFATYYCQQGGGASLITFGQGTKVEIKR
B2: anti-MMP9 Fab L13 (Fab, V domains shown)
VH: EVQLVESGGGLVQPGGSLRLSCAASGFNISSSYIHWVRQAPGKGLEWVASISSSSGYTSYADSVKGRFTISADTSKNTAYLQMNSLRAEDTAVYYCARKYMVFGTRMGWVEHTDFAGQGYYAMDYWGQGTLVTVSS
VL: DIQMTQSPSSLSASVGDRVTITCRASQSVSSAVAWYQQKPGKAPKLLIYSASSLYSGVPSRFSGSRSGTDFTLTISSLQPEDFATYYCQQYAALITFGQGTKVEIKR
B3: anti-MMP9 IgG L13 (antibody, V domains shown)
VH: B2 VH
VL: B2 VL
B4: anti-MMP9 IgG H3 (antibody, V domains shown)
VH: EVQLVESGGGLVQPGGSLRLSCAASGFNIYSSSMHWVRQAPGKGLEWVAYIYSSYGYTYYADSVKGRFTISADTSKNTAYLQMNSLRAEDTAVYYCARRFEPGLLKRNKRWISYTLCEAGYGMDYWGQGTLVTVSS
VL: B2 VL with Y91A, A92S, A93H
B5: anti-MMP9 Fab H3 (Fab, V domains shown)
VH: B4 VH
VL: B2 VL with Y91A, A92S, A93H

Legend:
[1] = target: catalytic domain of human MMP-9 (cdMMP-9) (human) (UniProt P14780); assay: inhibition of cdMMP-9 proteolytic activity, FRET peptide substrate
[2] = target: catalytic domain of human MMP-9 (cdMMP-9) (human) (UniProt P14780); assay: FRET peptide substrate inhibition assay, K1=IC50/(S/Km+1)
[3] = target: catalytic domain of human MMP-9 (cdMMP-9) (human) (UniProt P14780); assay: biolayer interferometry, biotinylated protease on streptavidin sensor, Fab in solution
[4] = target: catalytic domain of human MMP-9 (cdMMP-9) (human) (UniProt P14780); assay: biolayer interferometry, biotinylated cdMMP-9 on streptavidin biosensors, Fab in solution
[5] = target: catalytic domain of human MMP-9 (cdMMP-9) (human) (UniProt P14780); assay: cell-based or functional assay
[6] = target: catalytic domain of human MMP-9 (cdMMP-9) (human) (UniProt P14780)
[7] = target: catalytic domain of human MMP-9 (cdMMP-9) (human) (UniProt P14780); assay: biolayer interferometry, IgG on protein A sensor, protease in solution

Chain of UniProt P14780 (P14780 other isoform, or with tags, fused parts or gaps limits assumed): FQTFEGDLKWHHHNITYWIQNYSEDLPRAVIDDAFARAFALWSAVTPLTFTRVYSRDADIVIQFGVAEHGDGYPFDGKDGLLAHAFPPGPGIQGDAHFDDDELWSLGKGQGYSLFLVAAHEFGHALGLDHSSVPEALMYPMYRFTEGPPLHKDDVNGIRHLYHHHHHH

| Binder | IC50 [1] [µM] | Ki [2] [µM] | Kd [3] [µM] | koff [4] [s⁻¹] | kon [4] [M⁻¹ s⁻¹] | degradation of type I collagen by cdMMP-9 (SDS-PAGE) [5] [%] | Km of cdMMP-9 on FRET peptide substrate at 63 nM Fab L13 (without Fab: 1.3) [6] [µM] | Km of cdMMP-9 on FRET peptide substrate at 125 nM Fab L13 (without Fab: 1.3) [6] [µM] | Km of cdMMP-9 on FRET peptide substrate at 250 nM Fab L13 (without Fab: 1.3) [6] [µM] | Vmax of cdMMP-9 on FRET peptide substrate at 63 nM Fab L13 (without Fab: 1.3) [6] | Vmax of cdMMP-9 on FRET peptide substrate at 125 nM Fab L13 (without Fab: 1.3) [6] | Vmax of cdMMP-9 on FRET peptide substrate at 250 nM Fab L13 (without Fab: 1.3) [6] | Kd [7] [µM] |
| --- | --- | --- | --- | --- | --- | --- | --- | --- | --- | --- | --- | --- | --- |
| B1 | 0.52 | 0.29 | 0.45 | 0.031 | 69000 | – | – | – | – | – | – | – | – |
| B2 | 0.26 | 0.15 | 0.12 | 0.0044 | 83000 | 4 | 3.3 | 4.6 | 5.1 | 0.7 ΔRFU/s | 0.7 ΔRFU/s | 0.6 ΔRFU/s | – |
| B3 | 0.2 | 0.11 | – | – | – | – | – | – | – | – | – | – | 0.053 |
| B4 | 0.092 | 0.051 | – | – | – | – | – | – | – | – | – | – | 0.071 |
| B5 | – | 0.066 | 0.098 | 0.0048 | 49000 | – | – | – | – | – | – | – | – |
